Among the data in patent publication US20250051434A1 are Mean Fold Reduction (potency vs IL-12 WT by EC50; HEK-Blue IL-12 STAT4/SEAP reporter) values, retold here.

The target in the assay is human IL-12 receptor (IL-12R) (human) (UniProt P42701). In words: cell-based or functional assay.

With mIL-12-Fc-wt (Fc fusion), the Mean Fold Reduction (potency vs IL-12 WT by EC50; HEK-Blue IL-12 STAT4/SEAP reporter) is 1 fold.
